Experimental data taken from patent publication US20260374887 (published 2026).

Molecular target: BAFF-R (human, UniProt Q96RJ3)
Experiment: other, in vitro experiments

BAFF-R, sequence (Q96RJ3 7-71): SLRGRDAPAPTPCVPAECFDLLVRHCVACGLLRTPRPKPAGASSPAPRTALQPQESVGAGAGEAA

Kd: 0.046 nM
B1: ianalumab (VAY736) (antibody, V domains shown)
VH: QVQLQQSGPGLVKPSQTLSLTCAISGDSVSSNSAAWGWIRQSPGRGLEWLGRIYYRSKWYNSYAVSVKSRITINPDTSKNQFSLQLNSVTPEDTAVYYCARYDWVPKIGVFDSWGQGTLVTVSS
VL: DIVLTQSPATLSLSPGERATLSCRASQFISSSYLSWYQQKPGQAPRLLIYGSSSRATGVPARFSGSGSGTDFTLTISSLEPEDFAVYYCQQLYSSPMTFGQGTKVEIKR
